Values of other authors, collected in article PMC10616597.

Target: TLR4 (Homo sapiens) (UniProt O00206)
Chain of UniProt O00206 (O00206 24-839): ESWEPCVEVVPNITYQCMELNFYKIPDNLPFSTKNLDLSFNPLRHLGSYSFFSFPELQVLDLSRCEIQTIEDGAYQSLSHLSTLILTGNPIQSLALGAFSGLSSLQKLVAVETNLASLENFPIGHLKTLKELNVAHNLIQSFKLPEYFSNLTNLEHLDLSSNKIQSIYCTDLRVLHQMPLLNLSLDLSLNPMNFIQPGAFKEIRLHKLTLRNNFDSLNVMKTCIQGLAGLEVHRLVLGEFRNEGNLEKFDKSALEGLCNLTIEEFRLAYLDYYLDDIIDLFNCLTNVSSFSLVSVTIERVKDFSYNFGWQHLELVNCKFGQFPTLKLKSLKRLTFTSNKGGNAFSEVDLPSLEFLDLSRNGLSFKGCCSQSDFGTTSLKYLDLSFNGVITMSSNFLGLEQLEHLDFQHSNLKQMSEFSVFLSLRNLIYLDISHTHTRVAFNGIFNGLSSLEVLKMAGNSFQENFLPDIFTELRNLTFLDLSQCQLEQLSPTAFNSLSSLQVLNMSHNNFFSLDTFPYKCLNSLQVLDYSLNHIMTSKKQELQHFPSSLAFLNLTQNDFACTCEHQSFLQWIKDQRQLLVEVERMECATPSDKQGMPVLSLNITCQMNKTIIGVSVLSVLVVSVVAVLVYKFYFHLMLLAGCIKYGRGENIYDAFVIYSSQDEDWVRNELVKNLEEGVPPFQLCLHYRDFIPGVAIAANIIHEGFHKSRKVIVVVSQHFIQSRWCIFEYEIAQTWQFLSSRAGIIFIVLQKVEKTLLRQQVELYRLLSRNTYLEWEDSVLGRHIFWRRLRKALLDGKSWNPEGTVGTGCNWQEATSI

Question: Which Kd does the source give for eNAMPT (from UniProt P43490) here?
Answer: The Kd was 18 nM.
